This note sets out measurements from patent US20150182631A1, “SYSTEM FOR […]-BASED ACTIVE INGREDIENTS” (Centre National De La Recherche Scientifique-CNRS, priority 2012, published 2015).

A short description of series [1]: Thermal dissociation by NMR DOSY. The format is physicochemical. How it is done: The thermal dissociation was also followed by DOSY experiments (Diffusion Ordered SpectrometrY). The ratio of the hydrodynamic radius of XCL and of the dioxane were measured according to the temperature (FIG. 9).
If the tetramer is dissociated by increasing the temperature, a decrease in this ratio is expected and therefore of the hydrodynamic radius of XCL. […] After 50° C., the protein sample precipitates out as already described in the fluorescence experiments with tryptophan.

Series [2] in a line: FRET on dilution, tetramer equilibrium. The format is physicochemical. How it is done: The mixture of FITC-XCL and RITC-XCL was diluted to various concentrations and incubated for 1 hour at ambient temperature. The fluorescence spectrum was recorded with a light excitation at 468 nm. In order to substantially determine the decrease in the energy transfer and normalise the intensity of the fluorescence, a ratio I580/I520 was calculated for each concentration and taken according to the concentration in XCL (FIG. 4). […] Evidently, the titration curve is not complete as long as the saturation is not reached for the points with the strongest concentration. Due to the solubility limit of XCL and of the labelling protocol, the concentrations in protein cannot exceed 10 μM in this experiment.

Series [3] can be described thus: Confinement of fluorescein in the lectin cavity. As to conditions: 4 days at ambient temperature, free fluorescein eliminated again. The method, then: The confinement experiments are carried out by incubating the wild-type protein (XCL) or the mutants (A38C) with the molecule to be tested. In order to carry out the control experiments with the mutant A38C, an oxidation step is carried out in the presence of GSSG in a phosphate buffer 50 mM, 100 mM NaCl, pH 7.2, OVN. The GSSG is then eliminated on a PD-10 sephadex G-25M column (GE Healthcare) pre-balanced in a phosphate buffer 50 mM, 100 mM NaCl, pH 8.5. The eluate is concentred at 1 ml on Vivaspin 15R 30,000 MWCO (Sartorius stedim). A batch of A38C is reduced to TCEP (under argon) with adding of NaOH for a final pH of 8.5. […] The quantity of fluorescein is measured by using an absorption coefficient of e511 nm=75,000 cm^−1 M^−1. The concentrations of XCL and of A38C after the confinement are calculated with e278 nm=[…]. The percentage of confinement is calculated by forming the ratio of the fluorescein/protein concentrations.
In the case with XCL, the inventors incubated the protein (15 μM) with fluorescein (10 mM) and then separated the protein from the non-confined molecules of fluorescein by two successive gel filtration columns. Beforehand, the inventors verified that if these two columns on the fluorescein solution are carried out at 10 mM, no residual free fluorescein is detected. […]

Series [4] can be described thus: Thermal dissociation by tryptophan fluorescence. The format is physicochemical. From the text: The thermal dissociation of XCL was followed by measuring the intrinsic fluorescence of the tryptophans. Each monomer of XCL contains 3 tryptophan residues: one in a hydrophobic cavity (Trp 77) and two located on the same interface between two monomers (Trp 27 and Trp 35). The inventors used these latter two Trp as probes for the quaternary structure of XCL, by taking advantage of their position in the structure of the tetramer. In order to increase the sensitivity of the measurement, the ratio of the fluorescence intensities 346 nm/330 nm was measured according to the temperature (FIG. 8).

B1: XCL: Xerocomus chrysenteron lectin, fungal sporocarp lectin forming a tetramer with central cavity, SEQ ID NO: 1 (protein)
chain: MSYSITLRVYQTNRDRGYFSIVEKTVWHFANGGTWSEANGAHTLTQGGSGTSGVLRFLSTKGERITVAVGVHNYKRWCDVVTGLKPDETALVINPQYYNNGGRDYVREKQLAEYSVTSAIGTKVEVVYTVAEGNNLEANVIFS
modifications: Xerocomus chrysenteron
In the case of B1, the “temperature after which the protein sample precipitates out” value in series [1] (DOSY) is above 50 °C. In series [1] (ratio of hydrodynamic radius of XCL and dioxane), the “hydrodynamic radius versus temperature” value is reported as “no transition in the hydrodynamic radius is observed”. The “concentration of the transition in energy transfer intensity (I580/I520)” value in series [2] (1 hour at ambient temperature) is on record as “close to the micromolar”. For the same molecule, the “maximum protein concentration (solubility limit and labelling protocol)” value in series [2] (labelled XCL in FRET experiment) was at most 10 µM. Besides, the “confinement rate after incubation” value in series [3] was “remained unchanged”. Moreover, the “temperature before which no modification of the 346 nm/330 nm Trp fluorescence ratio was observed (lectin remained tetrameric)” value in series [4] is below 50 °C. Also, the “temperature beyond which the protein precipitates out (visual analysis after heating)” value in series [4] (precipitates in tetrameric form) was above 45 °C.
